We go through five molecules from patent US20250243261A1 (CZ BIOHUB SF, published 2025).

Substitutions are numbered along the chain they refer to. Names may count otherwise. Like-named read-outs stand apart in the source and are kept apart here.

Assay [1] deals with T1, Ebola GP ectodomain (Mayinga, Zaire, 1976) with the mucin-like domain deleted (Zaire ebolavirus (Mayinga, 1976), UniProt Q05320 33-650). Description: BLI, IgG.
Assay [2] has as its target T1, Ebola GP ectodomain (Mayinga, Zaire, …). Nature of the assay: BLI, Fab. Background: Biolayer interferometry detects binding as a change in optical thickness at a sensor tip.
Assay [3] shares this target.
Assay [4] concerns the target T2, full-length Ebola GP on pseudotyped lentivirus (Zaire ebolavirus, UniProt Q05320 33-676).
T2 sequence: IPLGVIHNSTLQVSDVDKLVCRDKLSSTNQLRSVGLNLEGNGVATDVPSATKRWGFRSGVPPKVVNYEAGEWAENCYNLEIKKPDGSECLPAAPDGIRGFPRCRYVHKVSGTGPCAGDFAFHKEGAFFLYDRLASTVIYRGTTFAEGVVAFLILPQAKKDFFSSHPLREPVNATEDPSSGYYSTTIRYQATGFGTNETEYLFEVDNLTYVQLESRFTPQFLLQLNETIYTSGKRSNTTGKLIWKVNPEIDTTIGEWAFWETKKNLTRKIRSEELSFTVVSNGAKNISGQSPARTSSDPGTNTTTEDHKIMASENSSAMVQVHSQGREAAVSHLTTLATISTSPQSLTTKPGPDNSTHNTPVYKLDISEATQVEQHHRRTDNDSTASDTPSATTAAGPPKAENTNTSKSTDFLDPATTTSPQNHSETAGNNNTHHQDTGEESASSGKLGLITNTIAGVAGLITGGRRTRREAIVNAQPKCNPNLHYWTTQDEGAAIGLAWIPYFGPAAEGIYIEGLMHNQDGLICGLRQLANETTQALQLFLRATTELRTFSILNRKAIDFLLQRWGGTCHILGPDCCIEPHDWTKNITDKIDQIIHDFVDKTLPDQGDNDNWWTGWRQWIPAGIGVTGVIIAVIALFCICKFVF
Nature of the assay: cell-based or functional assay.

The target in assay [5] is T1, Ebola GP ectodomain (Mayinga, Zaire, …). Nature of the assay: BLI, Fab. This is another data set of the same source.
Assay [6] has the same target. The source holds these as a separate data set.
The target is the same in assay [7]. This is another data set of the same source.

B1: mAb114 UCA WT IgG (antibody, V domains shown)
VH: EVQLVESGGGLVQPGGSLRLSCAASGFTFSSYDMHWVRQATGKGLEWVSAIGTAGDTYYPGSVKGRFTISRENAKNSLYLQMNSLRAGDTAVYYCVRSDRGVAGLFDSWGQGTLVTVSS
VL: DIQMTQSPSSLSASVGDRVTITCRASQGISNYLAWYQQKPGKVPKLLIYAASTLQSGVPSRFSGSGSGTDFTLTISSLQPEDVATYYCQKYNSAPLTFGGGTKVEIK
By Kd is commonly meant a measure of binding affinity in units of concentration. A higher Kd goes with a looser complex. For B1, in assay [1], the Kd is 400 nM.

B2: mAb114 UCA WT Fab (Fab, V domains shown)
VH: B1 VH
VL: B1 VL
As for B2, the Kd in assay [2] came out at 75000 nM.

B3: mAb114 VH D42G-A68T-S79Y / VL V43A IgG (antibody, V domains shown)
VH: EVQLVESGGGLIQPGGSLRLSCAASGFALRMYDMHWVRQTIGKRLEWVSAVGPSGDTYYADSVKGRFTVSRENAKNSLYLQMNSLTAGDTAIYYCVRSDRGVAGLFDSWGQGILVTVSS
VL: DIQMTQSPSSLSASVGDRITITCRASQAFDNYVAWYQQRPGKAPKLLISAASALHAGVPSRFSGSGSGTHFTLTISSLQPEDVATYYCQNYNSAPLTFGGGTKVEIK
For B3, the Kd in assay [3] is under 0.001 nM. The “Ebola GP pseudotyped lentivirus IC50” value in assay [4] is 0.96 nM.

B4: mAb114 WT Fab (Fab, V domains shown)
VH: B3 VH with G42D, T68A, Y79S
VL: B3 VL with A43V
In assay [5], B4 had a Kd of 0.17 nM.

B5: mAb114 VH D42G-A68T-S79Y / VL V43A Fab (Fab, V domains shown)
VH: B3 VH
VL: B3 VL
As for B5, the “fold improvement in Kd vs wildtype” value in assay [6] was 3 fold. In assay [7], this molecule displayed a dissociation constant Kd of 0.06 nM.
